Data set [1] concerns the target T1, LIG1 wild-type (Cy5-labelled) (human, UniProt P18858 1-919). Description: single-molecule TIRF co-localization; tbound 7.0 ± 0.9 s and 0.7 ± 0.1 s; tunbound 61 ± 2 s; 1 nM LIG1; TIRF: 1 mM HEPES pH 7.4, 20 mM NaCl, 0.02% BSA, 0.002% Tween 20, oxygen scavenger (44 mM glucose, glucose oxidase, catalase), 10 mM Trolox, 1 nM LIG1-Cy5, room. As to conditions: protein: recombinant; tags: 6xHis; Cy5 (NHS ester); label: 5'-biotin on S15; 3'-AF488 on S18; blunt 34-bp duplex with one nick between S15 and S18; 3'-A opposite T at nick.

The target of data set [2] is T1, LIG1 wild-type (Cy5-labelled). The experiment in a line: single-molecule TIRF co-localization; tunbound 79 ± 5 s; 1 nM LIG1; TIRF: 1 mM HEPES pH 7.4, 20 mM NaCl, 0.02% BSA, 0.002% Tween 20, oxygen scavenger (44 mM glucose, glucose oxidase, catalase), 10 mM Trolox, 1 nM LIG1-Cy5, room. As to conditions: protein: recombinant; tags: 6xHis; Cy5 (NHS ester); label: 5'-biotin on strand 1; 3'-AF488 on S18; blunt 34-bp duplex with one nick between strand 1 and S18; 3'-8oxoG opposite A at nick.

For data set [3], the target named is LIG1 K845N (Cy5-labelled) (human, UniProt P18858 1-919, K845N). The experiment in a line: single-molecule TIRF co-localization; long tbound 4 ± 0.7 s; tunbound 113 ± 8 s; similar to its nick binding, mostly nonspecific; 1 nM LIG1; TIRF: 1 mM HEPES pH 7.4, 20 mM NaCl, 0.02% BSA, 0.002% Tween 20, oxygen scavenger (44 mM glucose, glucose oxidase, catalase), 10 mM Trolox, 1 nM LIG1-Cy5, room. The conditions noted are these: protein: recombinant; tags: 6xHis; Cy5 (NHS ester); label: 5'-biotin and 3'-AF488 on S1; blunt, no nick.
Chain of LIG1 K845N (Cy5-labelled) (P18858 whole entry K845N): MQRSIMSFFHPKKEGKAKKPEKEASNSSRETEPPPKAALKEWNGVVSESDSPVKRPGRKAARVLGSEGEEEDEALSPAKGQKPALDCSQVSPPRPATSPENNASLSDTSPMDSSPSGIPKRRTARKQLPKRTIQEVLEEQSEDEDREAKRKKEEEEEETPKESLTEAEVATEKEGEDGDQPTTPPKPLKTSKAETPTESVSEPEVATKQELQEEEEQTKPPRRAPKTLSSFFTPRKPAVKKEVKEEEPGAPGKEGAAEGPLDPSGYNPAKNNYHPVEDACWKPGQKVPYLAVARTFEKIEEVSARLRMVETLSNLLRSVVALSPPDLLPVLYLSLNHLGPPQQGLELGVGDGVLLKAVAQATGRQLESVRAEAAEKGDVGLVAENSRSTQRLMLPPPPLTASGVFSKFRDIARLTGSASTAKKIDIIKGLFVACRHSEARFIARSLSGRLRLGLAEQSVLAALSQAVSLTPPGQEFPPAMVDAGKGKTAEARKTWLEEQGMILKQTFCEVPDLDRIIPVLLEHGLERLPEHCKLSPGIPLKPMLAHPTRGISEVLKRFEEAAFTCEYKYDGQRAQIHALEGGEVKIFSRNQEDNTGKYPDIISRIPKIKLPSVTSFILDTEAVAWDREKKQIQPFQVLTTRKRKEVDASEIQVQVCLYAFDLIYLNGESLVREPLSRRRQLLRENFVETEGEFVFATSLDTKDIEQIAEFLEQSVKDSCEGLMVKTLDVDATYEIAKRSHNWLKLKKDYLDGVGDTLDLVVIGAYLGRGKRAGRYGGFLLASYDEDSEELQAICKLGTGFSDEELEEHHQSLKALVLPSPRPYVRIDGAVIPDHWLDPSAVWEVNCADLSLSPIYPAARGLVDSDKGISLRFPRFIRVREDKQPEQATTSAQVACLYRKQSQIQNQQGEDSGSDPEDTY

The results in this text go back to publication PMC12673853, “Impaired nick recognition and ligation efficiency by LIG1 K845N variant linked to Huntington’s disease”.

T1 sequence (P18858 whole entry): as the sequence (P18858 whole entry K845N) above, with N845K counted along it

B1: nick A:T (dsDNA)
DNA 1: CATGGGCGGCATGAACCA
DNA 2: GAGGCCCATCCTCACC
DNA 3: GGTGAGGATGGGCCTCTGGTTCATGCCGCCCATG
modifications: 5'-phosphate on S18 at nick
In the case of B1, the binding result in data set [1] was “binds”.

B2: nick 8oxoG:A (dsDNA)
DNA 1: CATGGGCGGCATGAACCG
DNA 2: GAGGCCCATCCTCACC
DNA 3: GGTGAGGATGGGCCTCAGGTTCATGCCGCCCATG
modifications: 8-oxo-dG at position 18 of strand 1; 5'-phosphate on S18 at nick
As for B2, the binding result in data set [2] was “binds”.

B3: no-nick dsDNA (dsDNA)
DNA 1: CATGGGCGGCATGAACCAGAGGCCCATCCTCACC
DNA 2: GGTGAGGATGGGCCTCTGGTTCATGCCGCCCATG
For the molecule B3, the binding result in data set [3] was “binds”.
